Source: patent US6723841

Key:
[1] = target: human CRF1 receptor (human) (UniProt P34998); experiment: cell-based or functional assay
[2] = target: T1, human CRF2α receptor (human) (UniProt Q13324); experiment: cell-based or functional assay
T1 sequence: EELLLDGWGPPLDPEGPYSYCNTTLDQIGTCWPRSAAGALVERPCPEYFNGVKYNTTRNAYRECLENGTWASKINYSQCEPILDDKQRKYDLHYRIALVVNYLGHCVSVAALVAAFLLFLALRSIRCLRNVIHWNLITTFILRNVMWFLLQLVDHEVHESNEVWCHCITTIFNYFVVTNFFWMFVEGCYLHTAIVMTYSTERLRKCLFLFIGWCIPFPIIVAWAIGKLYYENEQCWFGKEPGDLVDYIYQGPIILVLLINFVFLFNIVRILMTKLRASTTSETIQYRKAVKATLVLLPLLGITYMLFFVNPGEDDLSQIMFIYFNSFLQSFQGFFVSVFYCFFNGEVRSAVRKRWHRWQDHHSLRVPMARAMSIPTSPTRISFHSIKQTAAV

Chain of human CRF1 receptor (human) (P34998 24-415): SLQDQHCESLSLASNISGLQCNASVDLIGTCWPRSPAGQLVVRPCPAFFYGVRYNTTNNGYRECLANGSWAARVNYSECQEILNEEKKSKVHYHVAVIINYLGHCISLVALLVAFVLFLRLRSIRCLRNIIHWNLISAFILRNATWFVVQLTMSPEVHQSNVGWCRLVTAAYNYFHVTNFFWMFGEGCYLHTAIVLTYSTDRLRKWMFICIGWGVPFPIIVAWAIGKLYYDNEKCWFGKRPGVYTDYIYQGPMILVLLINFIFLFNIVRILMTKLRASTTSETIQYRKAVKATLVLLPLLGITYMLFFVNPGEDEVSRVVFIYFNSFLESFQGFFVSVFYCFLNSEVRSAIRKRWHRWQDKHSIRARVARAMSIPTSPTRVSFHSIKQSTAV

Gly41 r/hCRF-OH (from UniProt P06850 154-194) (peptide)
EC50 of adenylate cyclase stimulation (cAMP) [1]: 0.8 µM | EC50 of adenylate cyclase stimulation (cAMP) [2]: > 1 µM

Urotensin I (peptide)
EC50 of adenylate cyclase stimulation (cAMP) [1]: 0.004 µM | EC50 of adenylate cyclase stimulation (cAMP) [2]: 0.002 µM

α-helical oCRF(9-41) (peptide)
EC50 of adenylate cyclase stimulation (cAMP) [1]: > 1 µM | EC50 of adenylate cyclase stimulation (cAMP) [2]: > 1 µM
